Assay [1] addresses T1, recombinant UPK2 extracellular domain (UPK2-His) (Homo sapiens (Human), UniProt O00526 85-155).
T1 construct: Made in E. coli; not shown: His tag
T1 sequence: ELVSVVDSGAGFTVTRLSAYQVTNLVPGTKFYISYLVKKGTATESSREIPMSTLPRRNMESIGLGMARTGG
Briefly: ELISA, antibody dilution series on UPK2-his coated at 0.5 ug/ml, OD490. On the procedure:
The ability of recombinant whole antibodies to bind antigen UPK2-His was analyzed using a classical ELISA method.
In general terms: ELISA stands for enzyme-linked immunosorbent assay.

Assay [2] addresses T1, recombinant UPK2 extracellular domain …. Briefly: SPR, BIAcore X-100; antibody captured by anti-human antibody on chip, UPK2-His as mobile phase. The method, then: (§1) The affinity of the eight monoclonal antibodies was analyzed using GE's BIAcore X-100. Affinity analysis was performed using a conventional procedure by first capturing the human monoclonal antibody with an anti-human antibody coated on a chip, and then using different concentrations of recombinant UPK2-His as the mobile phase for affinity analysis. […] Among them, the binding and dissociation of S7F11/S7G7 were slow, and the binding of S3D10 was too slow. When the three monoclonal antibodies were analyzed by BIAcore X-100 for affinity analysis, the automatic fitting of KD was poor, and the data was for reference only.
Background: In SPR one partner is held on a chip, and binding of the other changes the refractive index at the surface.

The target is the same in assay [3]. In words: SPR, BIAcore X-100; antibody captured, UPK2-His as mobile phase; remark Kd overrun, fit poor, for reference only. On the procedure: as §1
The target in assay [4] is T2, recombinantly expressed PAP (ACPP-His) (Homo sapiens (Human), UniProt P15309 33-379, limits assumed).
T2 construct: ACPP gene cloned into PTSE-His, expressed in HEK293, purified on Histrap FF; also called serum prostatic acid phosphatase; ACPP antigen; not shown: His tag from vector PTSE-His
T2 sequence: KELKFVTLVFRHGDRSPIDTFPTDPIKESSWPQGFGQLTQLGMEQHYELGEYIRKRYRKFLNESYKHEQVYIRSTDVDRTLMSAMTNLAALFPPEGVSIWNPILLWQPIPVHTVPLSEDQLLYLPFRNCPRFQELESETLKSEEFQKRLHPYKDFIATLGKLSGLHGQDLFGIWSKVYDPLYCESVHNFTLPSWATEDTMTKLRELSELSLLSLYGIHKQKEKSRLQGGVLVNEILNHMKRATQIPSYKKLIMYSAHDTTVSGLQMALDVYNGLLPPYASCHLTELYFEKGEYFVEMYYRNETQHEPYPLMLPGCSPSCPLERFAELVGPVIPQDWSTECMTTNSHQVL
In words: SPR, BIAcore X-100; antibody captured by anti-human antibody on chip, recombinant PAP as mobile phase. The method, then:
(§2) For the affinity assay in FIG. 10, the affinity of two monoclonal antibodies, S5D1 and S5F2, was analyzed using GE's BIAcore X-100 Biomolecular Interaction Analyzer. Affinity analysis was performed using a conventional procedure. The human monoclonal antibody S5D1 or S5F2 was captured using an anti-human antibody coated on a chip. Affinity analysis was then performed using different concentrations of recombinantly expressed PAP as the mobile phase. […] S5D1 has a higher affinity for ACPP antigen.

The target in assay [5] is T2, recombinantly expressed PAP (ACPP-His). In words: BIAcore X-100, antibody captured by anti-human antibody on the chip, recombinant PAP as the mobile phase. The method, then: as §2
The target is the same in assay [6]. In words: SPR, BIAcore X-100; antibody captured by anti-human antibody on chip, recombinant PAP as mobile phase; speculated value, read as weaker than 100 nM because the next sentence says S5D1 has the higher affinity. The method, then: as §2
The target in assay [7] is T1, recombinant UPK2 extracellular domain …. In words: SPR, BIAcore X-100; antibody captured, UPK2-His as mobile phase; remark U-value = 15, fit poor, for reference only. The method, then: as §1
Assay [8] shares this target. In words: SPR, BIAcore X-100; antibody captured by anti-human antibody on chip, UPK2-His as mobile phase; exponent as printed, koff/kon gives 2.34e-8. The method, then: as §1
Assay [9] has the same target. Briefly: phage ELISA, purified scFv phage on UPK2-his coated at 0.5 ug/ml, OD490.

B1: recombinant anti-UPK2 monoclonal antibody S3C10 (murine-human chimeric) (antibody, V domains shown)
VH: QVQLKESGGGLVQPGESLKLSCESSEFPFPSHDMSWVRKTPEKRLELVAAINSDGGSTYYPDTMERRFIISRDNTKKTLYLQMSSLRSEDTALYYCASLPTFAYWGQGTLVTVSA
VL: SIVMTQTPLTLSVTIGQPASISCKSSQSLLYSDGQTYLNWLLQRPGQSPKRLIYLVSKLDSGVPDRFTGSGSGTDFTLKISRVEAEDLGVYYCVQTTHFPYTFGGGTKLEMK
notes: Murine variable regions, human constant regions (vectors pTSEG1n, pTSEK), HEK293; also called UPK2-S3C10
What is called Kd is the concentration at which binding is half-saturated. With B1, the “EC50 (read off the curve)” value in assay [1] is approximately 0.5 nM. The Kd in assay [2] was 0.911 nM.

B2: recombinant anti-UPK2 monoclonal antibody S7F9 (murine-human chimeric) (antibody, V domains shown)
VH: QVQLKQSGPGLVRPGASVTMSCKASGYTFTSNWMHWVKQRPGQGLDWIGMIDPSNSDTRLNQKFKDKATLNVDKSSNTAYMQLSSLTSDDSAVYYCMRGGGDYWGQGTTLTVSS
VL: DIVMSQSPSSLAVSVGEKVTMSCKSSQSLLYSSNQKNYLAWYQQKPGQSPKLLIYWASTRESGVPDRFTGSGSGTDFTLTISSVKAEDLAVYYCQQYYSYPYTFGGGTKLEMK
notes: Murine variable regions, human constant regions (vectors pTSEG1n, pTSEK), HEK293; also called UPK2-S7F9
Consider B2, for which the “EC50 (read off the curve)” value in [1] was approximately 0.5 nM. In addition, the Kd in [2] came out at 16.7 nM.

B3: recombinant anti-UPK2 monoclonal antibody S3A4 (murine-human chimeric) (antibody, V domains shown)
VH: EVKLKQSGAELVKPGASVKLSCKASGYTLTSYYIYWVKQRPGQGLEWIGGISPSNGNTYFTEKFKNMATLTVDKSSNTAYMQLSSLTSEDSAVYYCARNYDYDVGFAYWGQGTLVTVSS
VL: DVVMTQTPLSLPVSLGDQASISCRSSQSIVHSNGNTYLEWYLQKPGQSPKLLIYKVSNRFSGVPDRFSGSGSGTDFTLKISRVEAEDLGVYYCFQGSHVPFTFGSGTKLEIK
notes: Murine variable regions, human constant regions (vectors pTSEG1n, pTSEK), HEK293; also called UPK2-S3A4
For B3, in assay [1], the “EC50 (read off the curve)” value is approximately 0.6 nM. In [2], the dissociation constant (Kd) came to 27.1 nM.

B4: recombinant anti-UPK2 monoclonal antibody S7F11 (murine-human chimeric) (antibody, V domains shown)
VH: EVQLKESGAELVRSGASVKLSCTASAFNIKDYYMNWMKQRPEQGLEWIGWIDPENGDTKYAPKFQGKATITADTSSSTAYLQLTSLTSEDSAVFYCNVNYKYDWFAYWGQGTLVTVSA
VL: DVVMTQSQKFMSTSVGDRVSVTCKASQNVGTNVAWYQQKPGQSPRALIYSASYRYSGVPDRFTGSGSGTDFTLTISNVQSEDLAEYFCQQYNTYPWTFGGGTKLEIK
notes: the first set is used here; Murine variable regions, human constant regions; also called UPK2-S7F11
Turning to B4, the Kd in [3] was found to be 2.32 nM.

B5: recombinant anti-UPK2 monoclonal antibody S2E2 (murine-human chimeric) (antibody, V domains shown)
VH: QVKLQQSGPELVRPGASVKMSCKASGYTFTTYWMHWVKQRPGQGLEWIGMIDPSNSDTRLNQKFKDKATLNVDTSSNTAYMHLSSLTSEDSAVYYCTLGGTEYWGQGATLTVSS
VL: SIVMTQSPATLSVTPGDRVSLSCRASQSIGDYLHWFQQKSHESPRLLIKYASQSISGIPSRFSGSGSGSDFTLIINTMEPEDVGVYYCQNAHTYPYTFGGGTKLEIK
notes: Murine variable regions, human constant regions (vectors pTSEG1n, pTSEK), HEK293; also called UPK2-S2E2
As for B5, the “EC50 (read off the curve)” value in assay [1] is approximately 0.5 nM. Also, the Kd in [2] worked out at 2.82 nM.

B6: ACPP antibody S5D1 (human full antibody) (antibody, V domains shown)
VH: EVQLVQSGAEVKKPGESLKISCKGSGYTFTNYWIGWVRQMPGKGLEWMGRIYPSDSYTNYSPSFQGQVTISADKSISTAYLQWSSLKASDTAMYYCARDLEPTHHYSWGQGTLVTVSS
VL: QSVLTQPASVSGSPGQSVTISCTGTSSDVGGYNYVSWYQQHPGKPPKLMIYEVSKRPSGVPDRFSGSKSGNTASLTISGLQAEDEADYYCSSHTSSNTLIFGGGTKVTVL
notes: Variable regions cloned into vectors pTSEG1n (heavy) and pTSEK (light) and expressed in HEK293 as human full antibody; also called monoclonal antibody S5D1
With B6, the results for the Kd in assay [4] and in assay [5] were approximately 9 nM and 9.02 nM, respectively.

B7: ACPP antibody S5F2 (human full antibody) (antibody, V domains shown)
VH: QVQLVQSGAEVKKPGSSVKVSCKASEDTFSSYVISWVRQAPGQGLEWMGAFIPLLGRVHYAQEFQGRLTITADESTGTAYMELKGLRSDDTAMYYCARDQGFAGDDAFDIWGQGTMVTVSS
VL: LPVLTQPPSASGTPGQRVTISCSGSSSNIGSNAVDWYQQLPGTAPKLLIYTNNRRPSGVPDRFSGSKSGTSGSLAISGLQFEDEADYYCAAWDDSLSGVIFGGGTKVTVL
notes: Human full antibody from vectors pTSEG1n and pTSEK, HEK293
Take B7: the Kd in assay [6] is more than 100 nM.

B8: recombinant anti-UPK2 monoclonal antibody S3D10 (murine-human chimeric) (antibody, V domains shown)
VH: QVQLQQSGAELVRSGASVKLSCTDSGFNIKDYYMNWVKQRPEQGLEWIGWIDPENGVTQYDPKFQGKATVTADTFSNTAYLQLSSLTSEDTAVYYCNANYKYDWFGYWGQGTLVTVSA
VL: NIVMTQSPSSLSASLGERVSLTCRASQEISGYLSWLQQKPDGTIKRLIYAASTLDSGVPERFSGSRSGSDYSLTISSLESEDFADYYCLQYASYPWTFGGGTKLEMK
notes: Murine variable regions, human constant regions (vectors pTSEG1n, pTSEK), HEK293; also called UPK2-S3D10
With B8, the Kd in assay [7] stood at 4060 nM.

B9: recombinant anti-UPK2 monoclonal antibody S2B7 (murine-human chimeric) (antibody, V domains shown)
VH: EVQLQQSGAELMKPGTSVKMSCKAAGYTFTKYWIGWVKQRPGHGLEWIGDIYPGGGYTLFNEKFKGKATLTADTSSSTAYMQLSSLTSEDSAIYYCARGNYWGQGTTLTVSS
VL: not shown
notes: Murine variable regions, human constant regions (vectors pTSEG1n, pTSEK); also called UPK2-S2B7
On to B9, for which the Kd in assay [8] came out at 23.4 nM. In addition, the “EC50 (read off the curve)” value in [1] is approximately 0.5 nM.

B10: scFv UPK2-S2B7 (phage display clone) (scFv)
scFv: EVQLQQSGAELMKPGTSVKMSCKAAGYTFTKYWIGWVKQRPGHGLEWIGDIYPGGGYTLFNEKFKGKATLTADTSSSTAYMQLSSLTSEDSAIYYCARGNYWGQGTTLTVSSGGGGSGGGGSGGGGSDVVMTQTPLTLSVTIGQPASISCKSSQSLLDSDGKTYLNWLLQRPGQSPKRLIYLVSKLDSGVPDRFTGSGSGTDFTLKISRVEAEDLGVYYCWQGTHFPHTFGGGTKLEMK
notes: also called clone S2B7
As to B10, the “EC50 (read off the curve)” value in [9] was approximately 3e+10 cfu/ml.

The record behind these values is patent publication US20250171560A1 (INNOVATIVE CELLULAR THERAPEUTICS, published 2025).
